This passage reports EC50 results from patent US20200325208A1.

Read-outs that look alike come from different tables or passages of the source.

Common to all, as to assay: ELISA, antigen captured by anti-His antibody on plate, HRP anti-IgG Fc detection
For experiment [1], the target named is Human VEGF121/VEGF-A protein (human VEGF 121 isoform) with 6-His tag (human) (UniProt P15692).
For experiment [2] the target is unchanged. This is another data set of the same source.
Experiment [3] shares this target. This is another data set of the same source.
Experiment [4] shares this target. This is another data set of the same source.

Sequence of Aflibercept (VEGFR-Fc) (Fc fusion) (chain): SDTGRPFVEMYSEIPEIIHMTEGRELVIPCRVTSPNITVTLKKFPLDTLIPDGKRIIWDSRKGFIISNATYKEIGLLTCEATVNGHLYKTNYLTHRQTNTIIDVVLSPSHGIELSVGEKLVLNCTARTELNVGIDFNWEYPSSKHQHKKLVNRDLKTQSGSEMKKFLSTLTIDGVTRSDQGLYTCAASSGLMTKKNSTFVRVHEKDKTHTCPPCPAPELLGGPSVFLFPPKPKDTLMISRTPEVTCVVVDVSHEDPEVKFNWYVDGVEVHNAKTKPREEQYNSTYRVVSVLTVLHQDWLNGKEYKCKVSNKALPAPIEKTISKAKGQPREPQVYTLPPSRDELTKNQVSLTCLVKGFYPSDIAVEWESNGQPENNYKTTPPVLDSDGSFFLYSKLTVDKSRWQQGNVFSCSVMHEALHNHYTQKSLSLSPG
Sequence of Human VEGF121/VEGF-A protein (human VEGF 121 isoform) with 6-His tag (human) (P15692 other isoform, or with tags, fused parts or gaps limits assumed): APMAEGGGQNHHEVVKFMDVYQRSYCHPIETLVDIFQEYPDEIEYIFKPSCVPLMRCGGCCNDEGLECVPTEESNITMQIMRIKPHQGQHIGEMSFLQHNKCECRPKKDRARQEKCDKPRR

For Aflibercept (VEGFR-Fc) (Fc fusion), the EC50 (as a rule, the concentration needed to bring the measured effect to its halfway point) in experiment [1] turned out to be 10.5 nM; in experiment [2], 21.4 nM; in experiment [3] it was 15.3 nM; in experiment [4] it was 12.2 nM.
